Numbering of substitutions follows the chain as printed. Each block holds one binder with its values, some of them ahead of it.
Biological target: T1, Ang2 protein (R&D system) (UniProt O15123 19-496)
T1 sequence (looked up): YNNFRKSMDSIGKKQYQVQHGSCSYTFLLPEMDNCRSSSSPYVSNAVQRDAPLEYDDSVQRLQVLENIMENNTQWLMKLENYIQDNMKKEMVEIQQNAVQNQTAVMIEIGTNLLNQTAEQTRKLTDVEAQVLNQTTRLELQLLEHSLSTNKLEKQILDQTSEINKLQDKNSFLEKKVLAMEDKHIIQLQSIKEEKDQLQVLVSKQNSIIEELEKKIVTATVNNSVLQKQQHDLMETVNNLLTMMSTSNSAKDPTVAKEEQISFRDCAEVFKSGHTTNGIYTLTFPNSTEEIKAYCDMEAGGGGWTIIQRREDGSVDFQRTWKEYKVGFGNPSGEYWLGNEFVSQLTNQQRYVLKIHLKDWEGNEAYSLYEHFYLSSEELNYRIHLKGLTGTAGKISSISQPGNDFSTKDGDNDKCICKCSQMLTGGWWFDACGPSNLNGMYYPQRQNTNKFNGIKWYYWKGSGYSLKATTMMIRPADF
Experiment: cell-based or functional assay

B2: 5F7D7-VH3-vegfr-VL5 (bispecific antibody, human IgG4 S228P, kappa)
heavy: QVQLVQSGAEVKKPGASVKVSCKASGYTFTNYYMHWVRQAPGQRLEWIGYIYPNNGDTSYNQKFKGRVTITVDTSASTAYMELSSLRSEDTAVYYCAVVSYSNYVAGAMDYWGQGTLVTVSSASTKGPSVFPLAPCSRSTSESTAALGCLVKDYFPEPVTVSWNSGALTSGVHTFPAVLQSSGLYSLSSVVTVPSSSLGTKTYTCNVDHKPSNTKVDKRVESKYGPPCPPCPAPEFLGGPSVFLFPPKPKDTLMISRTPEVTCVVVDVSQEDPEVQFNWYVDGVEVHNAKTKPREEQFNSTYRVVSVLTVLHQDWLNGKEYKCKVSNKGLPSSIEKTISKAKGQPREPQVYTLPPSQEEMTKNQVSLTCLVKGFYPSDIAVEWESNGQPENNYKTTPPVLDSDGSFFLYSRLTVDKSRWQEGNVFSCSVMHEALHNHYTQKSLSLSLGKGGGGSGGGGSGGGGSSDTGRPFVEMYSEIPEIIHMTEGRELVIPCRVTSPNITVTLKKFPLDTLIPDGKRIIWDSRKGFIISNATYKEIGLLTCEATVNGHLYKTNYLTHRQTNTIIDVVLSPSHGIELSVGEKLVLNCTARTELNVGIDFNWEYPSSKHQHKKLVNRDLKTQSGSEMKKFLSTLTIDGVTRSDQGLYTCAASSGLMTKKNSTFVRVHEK
light: DIQMTQSPSSLSASVGDRVTITCKASQSVSNDVAWYQQKPGKAPKLLIYFASNRYTGVPSRFSGSGYGTDFTFTISSLQPEDIATYFCQQDYSSPYTFGGGTKLEIKRTVAAPSVFIFPPSDEQLKSGTASVVCLLNNFYPREAKVQWKVDNALQSGNSQESVTEQDSKDSTYSLSSTLTLSKADYEKHKVYACEVTHQGLSSPVTKSFNRGEC
EC50 (phospho-Akt Ser473 HTRF dose-response, HUVEC + Ang2): ~2.12 nM
Span (phospho-Akt Ser473 HTRF dose-response, HUVEC + Ang2): 7020 HTRF ratio (665nm/620nm)

B3: 31E2D4-VH4-vegfr-VL1 (bispecific antibody, human IgG4 S228P, kappa)
heavy: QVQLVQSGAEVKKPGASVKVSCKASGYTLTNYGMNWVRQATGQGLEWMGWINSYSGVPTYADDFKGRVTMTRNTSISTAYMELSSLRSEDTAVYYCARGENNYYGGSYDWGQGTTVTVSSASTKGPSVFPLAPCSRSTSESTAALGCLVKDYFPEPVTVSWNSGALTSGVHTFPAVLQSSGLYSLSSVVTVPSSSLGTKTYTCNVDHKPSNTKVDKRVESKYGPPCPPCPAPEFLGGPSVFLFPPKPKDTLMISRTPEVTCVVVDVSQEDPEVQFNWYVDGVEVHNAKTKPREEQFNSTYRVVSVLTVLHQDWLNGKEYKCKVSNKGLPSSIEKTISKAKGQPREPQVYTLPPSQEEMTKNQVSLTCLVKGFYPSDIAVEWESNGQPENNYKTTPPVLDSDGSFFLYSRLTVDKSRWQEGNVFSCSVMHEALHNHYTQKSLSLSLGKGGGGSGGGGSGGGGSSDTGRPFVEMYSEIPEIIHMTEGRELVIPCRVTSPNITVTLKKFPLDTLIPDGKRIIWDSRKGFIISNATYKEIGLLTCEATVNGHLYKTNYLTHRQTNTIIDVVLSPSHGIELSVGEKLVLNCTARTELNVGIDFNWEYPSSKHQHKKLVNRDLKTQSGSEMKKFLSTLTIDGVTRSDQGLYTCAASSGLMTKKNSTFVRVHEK
light: B2 light with F50Y, Y67S, F73L, I83F, F87Y, Y96L
EC50 (phospho-Akt Ser473 HTRF dose-response, HUVEC + Ang2): 2.39 nM
Span (phospho-Akt Ser473 HTRF dose-response, HUVEC + Ang2): 7380 HTRF ratio (665nm/620nm)

B5: 7F10B2-VH3-vegfr-VL3 (bispecific antibody, human IgG4 S228P, kappa)
heavy: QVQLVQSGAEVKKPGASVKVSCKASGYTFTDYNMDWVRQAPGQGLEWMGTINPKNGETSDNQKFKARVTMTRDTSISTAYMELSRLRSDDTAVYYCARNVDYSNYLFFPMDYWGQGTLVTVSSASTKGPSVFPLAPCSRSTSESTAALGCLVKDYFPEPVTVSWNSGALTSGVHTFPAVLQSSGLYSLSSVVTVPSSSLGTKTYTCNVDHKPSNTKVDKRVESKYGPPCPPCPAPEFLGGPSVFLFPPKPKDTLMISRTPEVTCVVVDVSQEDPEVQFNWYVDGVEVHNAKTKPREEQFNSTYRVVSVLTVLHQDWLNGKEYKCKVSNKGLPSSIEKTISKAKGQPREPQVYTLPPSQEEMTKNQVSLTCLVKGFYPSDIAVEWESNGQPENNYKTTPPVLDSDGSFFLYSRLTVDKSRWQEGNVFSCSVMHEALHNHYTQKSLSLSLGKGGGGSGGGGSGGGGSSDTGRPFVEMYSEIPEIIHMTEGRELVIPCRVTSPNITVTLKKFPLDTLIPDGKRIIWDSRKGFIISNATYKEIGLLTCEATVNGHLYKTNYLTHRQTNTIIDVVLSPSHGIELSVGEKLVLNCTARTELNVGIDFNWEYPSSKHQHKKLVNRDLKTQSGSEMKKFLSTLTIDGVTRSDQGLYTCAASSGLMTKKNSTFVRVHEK
light: DIQMTQSPSSLSASVGDRVTITCKASQSVSNDVAWYQQKPGKAPKLLIYYASNRFTGVPSRFSGSGSGTDFTLTISSLQPEDFATYYCQQDYSSRTFGGGTKVEIKRTVAAPSVFIFPPSDEQLKSGTASVVCLLNNFYPREAKVQWKVDNALQSGNSQESVTEQDSKDSTYSLSSTLTLSKADYEKHKVYACEVTHQGLSSPVTKSFNRGEC
EC50 (phospho-Akt Ser473 HTRF dose-response, HUVEC + Ang2): 2.59 nM
Span (phospho-Akt Ser473 HTRF dose-response, HUVEC + Ang2): 7330 HTRF ratio (665nm/620nm)

B6: 7F10B2-VL3-vegfr-VH3 (bispecific antibody, human IgG4 S228P, kappa)
heavy: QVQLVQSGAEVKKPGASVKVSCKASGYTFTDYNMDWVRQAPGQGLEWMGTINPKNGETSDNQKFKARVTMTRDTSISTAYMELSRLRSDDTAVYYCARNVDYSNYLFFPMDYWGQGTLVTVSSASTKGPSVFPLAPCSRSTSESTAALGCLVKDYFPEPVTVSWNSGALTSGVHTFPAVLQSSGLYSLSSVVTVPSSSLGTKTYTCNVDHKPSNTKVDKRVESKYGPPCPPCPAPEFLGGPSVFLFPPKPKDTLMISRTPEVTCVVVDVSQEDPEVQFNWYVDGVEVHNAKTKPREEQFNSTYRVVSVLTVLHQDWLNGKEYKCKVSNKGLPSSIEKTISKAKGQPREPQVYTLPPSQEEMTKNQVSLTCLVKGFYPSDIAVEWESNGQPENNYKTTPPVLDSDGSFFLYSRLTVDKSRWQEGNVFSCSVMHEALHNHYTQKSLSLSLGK
light: DIQMTQSPSSLSASVGDRVTITCKASQSVSNDVAWYQQKPGKAPKLLIYYASNRFTGVPSRFSGSGSGTDFTLTISSLQPEDFATYYCQQDYSSRTFGGGTKVEIKRTVAAPSVFIFPPSDEQLKSGTASVVCLLNNFYPREAKVQWKVDNALQSGNSQESVTEQDSKDSTYSLSSTLTLSKADYEKHKVYACEVTHQGLSSPVTKSFNRGECESKYGPPSPPSPSDTGRPFVEMYSEIPEIIHMTEGRELVIPCRVTSPNITVTLKKFPLDTLIPDGKRIIWDSRKGFIISNATYKEIGLLTCEATVNGHLYKTNYLTHRQTNTIIDVVLSPSHGIELSVGEKLVLNCTARTELNVGIDFNWEYPSSKHQHKKLVNRDLKTQSGSEMKKFLSTLTIDGVTRSDQGLYTCAASSGLMTKKNSTFVRVHEK
EC50 (phospho-Akt Ser473 HTRF dose-response, HUVEC + Ang2): 2.27 nM
Span (phospho-Akt Ser473 HTRF dose-response, HUVEC + Ang2): 7460 HTRF ratio (665nm/620nm)

Now from value to binder:

EC50 (phospho-Akt Ser473 HTRF dose-response, HUVEC + Ang2): 883 nM
Span (phospho-Akt Ser473 HTRF dose-response, HUVEC + Ang2): 14300 HTRF ratio (665nm/620nm)
B1: hABTAA-VHvegfr-VL (bispecific antibody, human IgG4 S228P, kappa)
heavy: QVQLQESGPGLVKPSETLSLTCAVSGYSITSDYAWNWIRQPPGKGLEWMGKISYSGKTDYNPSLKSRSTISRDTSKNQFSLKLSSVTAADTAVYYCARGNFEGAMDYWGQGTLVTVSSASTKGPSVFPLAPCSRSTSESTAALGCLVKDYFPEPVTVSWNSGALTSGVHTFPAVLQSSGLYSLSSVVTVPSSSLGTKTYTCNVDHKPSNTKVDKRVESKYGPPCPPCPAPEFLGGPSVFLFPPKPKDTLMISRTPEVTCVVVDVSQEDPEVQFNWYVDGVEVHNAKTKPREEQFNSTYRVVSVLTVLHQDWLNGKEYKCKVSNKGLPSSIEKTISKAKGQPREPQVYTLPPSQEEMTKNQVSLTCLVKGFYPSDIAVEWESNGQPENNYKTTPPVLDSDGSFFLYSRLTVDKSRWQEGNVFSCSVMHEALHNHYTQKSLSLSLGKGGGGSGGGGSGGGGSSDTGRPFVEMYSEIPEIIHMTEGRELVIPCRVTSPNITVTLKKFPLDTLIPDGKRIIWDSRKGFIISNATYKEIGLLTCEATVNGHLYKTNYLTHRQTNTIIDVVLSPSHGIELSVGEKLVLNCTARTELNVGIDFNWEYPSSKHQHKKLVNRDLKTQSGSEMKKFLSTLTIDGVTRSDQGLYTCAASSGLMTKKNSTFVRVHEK
light: B2 light with F50Y, T56P, Y67S, F73L, I83F, F87Y, Y96W, G100Q

EC50 (phospho-Akt Ser473 HTRF dose-response, HUVEC + Ang2): 2.53 nM
Span (phospho-Akt Ser473 HTRF dose-response, HUVEC + Ang2): 5590 HTRF ratio (665nm/620nm)
B4: hABTAA anti-Ang2 antibody (antibody, human IgG4 S228P, kappa, V domains shown)
VH: QVQLQESGPGLVKPSETLSLTCAVSGYSITSDYAWNWIRQPPGKGLEWMGKISYSGKTDYNPSLKSRSTISRDTSKNQFSLKLSSVTAADTAVYYCARGNFEGAMDYWGQGTLVTVSS
VL: DIQMTQSPSSLSASVGDRVTITCKASQSVSNDVAWYQQKPGKAPKLLIYYASNRYPGVPSRFSGSGSGTDFTLTISSLQPEDFATYYCQQDYSSPWTFGQGTKLEIKR

EC50 (phospho-Akt Ser473 HTRF dose-response, HUVEC + Ang2): 3.25 nM
Span (phospho-Akt Ser473 HTRF dose-response, HUVEC + Ang2): 5440 HTRF ratio (665nm/620nm)
B7: hABTAA-VH-VLvegfr (bispecific antibody, human IgG4 S228P, kappa)
heavy chain: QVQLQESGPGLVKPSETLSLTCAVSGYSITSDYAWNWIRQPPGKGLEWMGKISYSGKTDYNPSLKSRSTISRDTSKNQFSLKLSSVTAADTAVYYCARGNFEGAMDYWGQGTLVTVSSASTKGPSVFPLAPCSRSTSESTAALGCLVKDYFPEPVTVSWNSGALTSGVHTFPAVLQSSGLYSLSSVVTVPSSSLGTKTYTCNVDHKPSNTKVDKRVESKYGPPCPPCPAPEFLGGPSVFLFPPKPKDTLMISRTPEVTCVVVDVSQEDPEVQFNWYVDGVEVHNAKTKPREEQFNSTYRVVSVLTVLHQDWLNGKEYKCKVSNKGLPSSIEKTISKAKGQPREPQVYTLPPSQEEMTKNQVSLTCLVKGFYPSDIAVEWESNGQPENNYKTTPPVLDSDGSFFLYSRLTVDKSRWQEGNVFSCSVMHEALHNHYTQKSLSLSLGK
light chain fusion polypeptide (VEGF-trap at C' of LC): DIQMTQSPSSLSASVGDRVTITCKASQSVSNDVAWYQQKPGKAPKLLIYYASNRYPGVPSRFSGSGSGTDFTLTISSLQPEDFATYYCQQDYSSPWTFGQGTKLEIKRTVAAPSVFIFPPSDEQLKSGTASVVCLLNNFYPREAKVQWKVDNALQSGNSQESVTEQDSKDSTYSLSSTLTLSKADYEKHKVYACEVTHQGLSSPVTKSFNRGECESKYGPPSPPSPSDTGRPFVEMYSEIPEIIHMTEGRELVIPCRVTSPNITVTLKKFPLDTLIPDGKRIIWDSRKGFIISNATYKEIGLLTCEATVNGHLYKTNYLTHRQTNTIIDVVLSPSHGIELSVGEKLVLNCTARTELNVGIDFNWEYPSSKHQHKKLVNRDLKTQSGSEMKKFLSTLTIDGVTRSDQGLYTCAASSGLMTKKNSTFVRVHEK

EC50 (phospho-Akt Ser473 HTRF dose-response, HUVEC + Ang2): 4.36 nM
Span (phospho-Akt Ser473 HTRF dose-response, HUVEC + Ang2): 6380 HTRF ratio (665nm/620nm)
B8: hABTAA-VH-vegfrVL (bispecific antibody, human IgG4 S228P, kappa)
heavy chain: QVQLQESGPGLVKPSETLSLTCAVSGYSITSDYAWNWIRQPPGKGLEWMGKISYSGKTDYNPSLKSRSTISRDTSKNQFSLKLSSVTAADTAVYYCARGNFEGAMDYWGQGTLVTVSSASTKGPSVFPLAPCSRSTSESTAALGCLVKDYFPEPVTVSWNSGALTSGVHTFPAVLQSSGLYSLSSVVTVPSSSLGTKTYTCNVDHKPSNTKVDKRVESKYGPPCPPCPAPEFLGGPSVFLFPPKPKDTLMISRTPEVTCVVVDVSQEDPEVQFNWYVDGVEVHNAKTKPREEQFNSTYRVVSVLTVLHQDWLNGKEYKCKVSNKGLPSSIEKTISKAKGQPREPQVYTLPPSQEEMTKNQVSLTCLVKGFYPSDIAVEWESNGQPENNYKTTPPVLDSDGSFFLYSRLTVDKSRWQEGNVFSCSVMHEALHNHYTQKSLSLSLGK
light chain fusion polypeptide (VEGF-trap at N' of LC): SDTGRPFVEMYSEIPEIIHMTEGRELVIPCRVTSPNITVTLKKFPLDTLIPDGKRIIWDSRKGFIISNATYKEIGLLTCEATVNGHLYKTNYLTHRQTNTIIDVVLSPSHGIELSVGEKLVLNCTARTELNVGIDFNWEYPSSKHQHKKLVNRDLKTQSGSEMKKFLSTLTIDGVTRSDQGLYTCAASSGLMTKKNSTFVRVHEKGGGGSGGGGSGGGGSDIQMTQSPSSLSASVGDRVTITCKASQSVSNDVAWYQQKPGKAPKLLIYYASNRYPGVPSRFSGSGSGTDFTLTISSLQPEDFATYYCQQDYSSPWTFGQGTKLEIKRTVAAPSVFIFPPSDEQLKSGTASVVCLLNNFYPREAKVQWKVDNALQSGNSQESVTEQDSKDSTYSLSSTLTLSKADYEKHKVYACEVTHQGLSSPVTKSFNRGEC

EC50 (phospho-Akt Ser473 HTRF dose-response, HUVEC + Ang2): 4.72 nM
Span (phospho-Akt Ser473 HTRF dose-response, HUVEC + Ang2): 7740 HTRF ratio (665nm/620nm)
B9: vegfr-5A7B9-VL1.1-VH3 (bispecific antibody, human IgG4 S228P, kappa)
heavy: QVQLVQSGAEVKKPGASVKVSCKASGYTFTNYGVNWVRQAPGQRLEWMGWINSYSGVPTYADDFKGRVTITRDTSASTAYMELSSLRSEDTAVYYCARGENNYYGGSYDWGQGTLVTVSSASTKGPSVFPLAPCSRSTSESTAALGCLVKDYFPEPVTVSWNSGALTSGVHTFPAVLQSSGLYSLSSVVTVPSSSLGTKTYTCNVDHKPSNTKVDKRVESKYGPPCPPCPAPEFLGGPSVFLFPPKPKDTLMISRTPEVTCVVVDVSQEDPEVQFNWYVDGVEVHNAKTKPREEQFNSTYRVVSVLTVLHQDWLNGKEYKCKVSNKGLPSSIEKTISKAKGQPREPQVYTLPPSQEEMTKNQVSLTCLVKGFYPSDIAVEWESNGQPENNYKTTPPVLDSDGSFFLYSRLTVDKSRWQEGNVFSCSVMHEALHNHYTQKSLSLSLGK
light: B8 light chain fusion polypeptide (VEGF-trap at N' of LC) with P276T, Y307F, W316L, Q320G

From patent US20240182553A1 (NANJING GENSCRIPT BIOTECH, published 2024)
